# Experimental data published in US20220306734A1 (H LUNDBECK A S, published 2022).
# Numbering of substitutions follows the chain as printed. Where two headings read alike, the source gives them in different places.
# B1: mGluR5 Ab8 (antibody, V domains shown)
# VH: QSVEESGGRLVTPGTPLTLTCSVSGIDLSSYAMSWVRQAPGKGLEWIGVIYASGSTYYASWAKGRFTISKTSTTVDLKITSPTTGDTATYFCVRDTTATYNYFNLWGQGTLVTVSS
# VL: AYDMTQTPASVEVAVGGTATIKCQASQSIYNYLAWYQQKPGQPPKLLIYEASTLASGVPSRFKGSGSGTEFTLTISDLECADAATYYCQQSLSPSNVGRRVFGGGTEVVVKR
# notes: Rabbit variable regions on human heavy and light chain constant regions (chimeric)
# B2: mGluR5 Ab5 (antibody, V domains shown)
# VH: QEQLVESGGGLVQPEGSLTLTCTASGIDFSSGYFMCWVRQAPGKGLEWIACISPYSDNTWYANWAKGRFTISKTSSTTVTLQMTSLTAADTAAYRCARTMAIGAYNPFKLWGQGTLVTVSS
# VL: ALVMTQTPSSVSAAVGGTVTINCQASQNIYSNLAWYQQKPGQRPKLLIYDASDLASGVSSRVKGSGSGTEFTLTISDLECADAATYYCQGYYSGNAFGGGTEVVVKR
# notes: as for B1
# B3: mGluR5 Ab6 (antibody, V domains shown)
# VH: QSLEESGGRLVTPGGTLTLTCTVSGIDLSSYAMSWVRQAPGKGLEWIGIIYASGNTWYANWVKGRFTISKTSTTVDLKMTSPTTEDTATYFCARDSSATFNYLDLWGQGTLVTVSS
# VL: AFHMTQTPASMEVAVGGTVTMKCQASESIDTYLNWYQQKPGQPPKLLIYQASKLASGVPSRFKGSGSGTEFTLTISGVECADAATYYCQQGWSTNDVDNVFGGGTEVVVKR
# notes: as for B1
# B4: mGluR5 Ab7 (antibody, V domains shown)
# VH: QSVEESGGRLVTPGTPLTLTCTVSGFSLSRYAMGWVRHVPGKGLEWIGIIYASGSTYYASWAKGRFTISKTSTTVDLKITSPTTEDTATYFCARSRTATYDAVDPWGPGTLVTVSS
# VL: AYDMTQTPASVSEPVGGTVTIKCQASQSISSYLSWYQQKPGQPPKLLIYEASTLASGVSSRFKGSGSGTEYTLTISDLECDDAAAYYCQQDLSGSNLDNSFGGGTEVVVKR
# notes: as for B1
# B5: mGluR5 Ab21 (antibody, V domains shown)
# VH: QSLEESGGGLVQPGASLTLTCTASGFSFSSNYWICWVRQAPGKGLEWIGCIYTGTGITWYASWVNGRVTISSTSSTTVTLQVNSLTAADTATYFCARGSGDIAWAWDLWGQGTLVTVSS
# VL: DVVMTQTPASVSAAVGGTVTIKCQASQSIYTNLAWYQQKPGQPPKLLIYKASTLASGVSSRFKGSGSGTEFTLTISGVQCADAATYYCQCTGYGSSGWTFGGGTEVVVKR
# notes: as for B1
# B6: mGluR5 Ab10 (antibody, V domains shown)
# VH: QSLEESGGRLVTPGTPLTLTCTVSGIDLSSYAVGWVRQAPGKGLEYIGIIYASGNTWYASWVKGRFTISKTSTTVDLKMTSLTTEDTATYFCARGHGATYDYFNLWGPGTLVTVSS
# VL: AYDMTQTPASVEVAVGGTVTIKCQASQSISSWLAWYQQKPGQPPKLLIYDASDLASGVPSRFKGSGSGTEYTLTISGVQCDDAATYYCQQGLATANVDNVFGGGTEVVVKR
# notes: as for B1
# B7: mGluR5 Ab11 (antibody, V domains shown)
# VH: QSLEESGGGLVKPGGTLTLTCTASGFSFSSSYWICWVRQAPGKGLEWIGCIYGSTDAYNANWAKGRFAISQTSSTTVTLQMTSLPAADTATYFCARHDGDIGWTLDLWGPGTLVTVSS
# VL: AYDMTQTPASVEVAVGGTVTIKCQASLTIGTRLAWYQQKPGQPPKLLIYKASTLASGVSSRFKGSGSGTQFALTISDLECADAATYYCQQAAYVTDIDNAFGGGTEVVVKR
# notes: as for B1
# B8: mGluR5 Ab1 (antibody, V domains shown)
# VH: QQQLEESGGGLVKPGGTLTLTCKVSGIDFSSYYYMCWVRQAPGKGLEWIACIYAGDGGTYYASWAKGRFTSSKTSSTTVTLQMTSLTAADTATYFCARGSGVGSYGYSLWGPGTLVTVSS
# VL: DIVMTQTPASVEAAVGGTVTIKCQASESIYSNLAWYQQKPGQPPKLLIYRASNLESGVPSRFKGSGSGTEFTLTISDLECADAATYYCQGYYASTTTNAFGGGTEVVVKR
# notes: as for B1
# B9: mGluR5 Ab18 (antibody, V domains shown)
# VH: QQQLEESGGGLVKPGGTLTLTCKASGLDFSNYHYMCWVRQAPGKRPEWIACIYNGDGTTYDASWAKGRFTSSKTSSTTVTLQMTSLTAADTATYFCARGSGVGSYGYNLWGQGTLVTVSS
# VL: B8 VL with N53T, T95I, T96I
# notes: as for B1
# B10: mGluR5 Ab17 (antibody, V domains shown)
# VH: B8 VH with Q2R, T17A, V24A, M35I, G58T, S63T, K66E, S108N, P112Q
# VL: B8 VL with S28Y, N53T, Y92F, A93P, T95I, T96I
# notes: as for B1
# B11: mGluR5 Ab2 (antibody, V domains shown)
# VH: B8 VH with V24A, S31G, I52V, A54T, S71I, S108N, P112Q
# VL: B8 VL with S94I
# notes: as for B1
# B12: mGluR5 Ab19 (antibody, V domains shown)
# VH: QEQLEESGGDLVKPEGSLTLTCTASGFSFSNYYYMCWVRQAPGKGLEWIACIYTSSGSTYYANWVNGRFTISRSTSLNTVTLQVTSLTAADTATYFCAKSFGVGGYSFNLWGQGTLVTVSS
# VL: AYDMTQTPASVEVAVGGTVTIKCQASQSISSYLSWYQQKPGQRPKLLIYRASTLASGVSSRFKGSGSGTEYSLSISGMECDDAATYYCQQGTTISDVDNVFGGGTEVVVKR
# notes: as for B1
# B13: mGluR5 Ab12 (antibody, V domains shown)
# VH: QSVEESGGRLVTPGTPLTLTCTVSGIDLSSNAMGWVRQAPGKGLEWIGIIYASGNAWYANWVKGRFTISKTSTTVDLKITSPTTEDTATYFCARDATATWDYFNLWGQGTLVTVSS
# VL: AYDMTQTPSSVSAAVGGTVTIKCQASQSISNWLSWYQQKPGQPPKLLIYRASTLASGVSSRFSGSGSGTEFTLTISDLECADAATYYCQQGYSVANVDNAFGGGTEVVVKR
# notes: as for B1
# Experiments:
# [1] = target: full-length (FL) human mGluR5 on BA/F3-mGluR5 clone 10C9 cells (human) (UniProt P41594); assay: cell-based or functional assay
# [2] = target: T1, human mGluR1 extracellular domain (human-mGluR1-ECD) (human, UniProt Q13255 19-592, limits assumed); assay: HTRF, soluble ECD
# T1 construct: ECD construct made 'in a similar fashion' to the human mGluR5 one; also called hu-mGluR1
# Experimental: (§1) Binding of antibodies to mGluR5/mGluRJ measured via Homogeneous Time-Resolved Fluorescence (HTRF). Binding assays were performed using HTRF reagents from CisBio. Ten microliters of an antibody dilution series (highest final concentration of 30 nM) was incubated with 10 μl of mGluR-ECD (10 nM final concentration) in HTRF buffer (50 mM Phosphate buffer pH7, 0.8M KF (potassium fluoride), 0.2% BSA). Twenty microliters of Europium-labeled anti-hu-Fc donor (2 nM final concentration, CisBio Catalog No. 61HFCKLB) and 20 μl of XL665-labeled anti-Flag acceptor (60 nM final concentration, CisBio Catalog No. 61FG2XLB) were added to each well and incubated for 1 hour at room temperature. Alternatively, the antibody dilution series was incubated with 10 μl of biotinylated mGluR-ECD (10 nM final concentration), and 20 μl of Europium-labeled anti-hu-Fc donor (2 nM final concentration) and 20 μl of d2-labeled streptavidin acceptor (60 nM final concentration, CisBio Catalog No. 610SADLB) were added to each well. Fluorescence was measured at 620 and 665 nm with a delay of 300 μsec. Results were expressed as the ratio of signal at 665 nm over 620 nm. EC₅₀ values were calculated for binding of Ab1-Ab23 to human-mGluR5-ECD, of Ab1-Ab21 to rat-mGluR5-ECD, and of Ab1, Ab2 and Ab4-Ab12 to monkey-mGluR5-ECD and to human-mGluR1-ECD (TABLE 1).
# [3] = target: T2, cynomolgus monkey mGluR5 extracellular domain (monkey-mGluR5-ECD) (cynomolgus monkey, UniProt P41594 21-580 (human entry), limits assumed); assay: HTRF, soluble ECD
# T2 construct: ECD construct made 'in a similar fashion' to the human one; also called cyno-mGluR5
# Experimental: as §1
# [4] = target: full-length (FL) human mGluR5 on BA/F3-mGluR5 clone 10C9 cells (human) (UniProt P41594); assay: flow cytometry, BA/F3-mGluR5 10C9 cells, 10 ug/ml antibody
# [5] = target: human mGluR5 extracellular domain (human-mGluR5-ECD) (human) (UniProt P41594); assay: HTRF, soluble ECD
# [6] = target: human mGluR5 extracellular domain (human-mGluR5-ECD) (human) (UniProt P41594); assay: HTRF, soluble ECD; remark: listed apart in the source
# [7] = target: T3, rat mGluR5 extracellular domain (rat-mGluR5-ECD) (rat, UniProt P31424 21-504); assay: HTRF, soluble ECD
# T3 construct: ECD construct made 'in a similar fashion' to the human one
# Experimental: as §1
# T3 sequence (P31424 other isoform, or with tags, fused parts or gaps limits assumed, form in doubt): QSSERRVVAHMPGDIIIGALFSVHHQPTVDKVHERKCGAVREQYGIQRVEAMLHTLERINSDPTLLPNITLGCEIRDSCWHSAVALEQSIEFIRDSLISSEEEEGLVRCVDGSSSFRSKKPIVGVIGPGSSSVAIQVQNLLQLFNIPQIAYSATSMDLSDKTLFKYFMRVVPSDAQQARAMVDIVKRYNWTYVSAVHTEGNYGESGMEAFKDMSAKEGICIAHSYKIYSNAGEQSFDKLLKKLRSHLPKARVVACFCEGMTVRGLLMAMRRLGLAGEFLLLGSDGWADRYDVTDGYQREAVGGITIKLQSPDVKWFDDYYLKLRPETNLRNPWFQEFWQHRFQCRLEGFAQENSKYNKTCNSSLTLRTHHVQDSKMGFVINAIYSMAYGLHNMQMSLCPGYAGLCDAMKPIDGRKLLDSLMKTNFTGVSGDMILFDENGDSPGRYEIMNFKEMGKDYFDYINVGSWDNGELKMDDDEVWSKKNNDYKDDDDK
# T1 sequence (Q13255 other isoform, or with tags, fused parts or gaps limits assumed): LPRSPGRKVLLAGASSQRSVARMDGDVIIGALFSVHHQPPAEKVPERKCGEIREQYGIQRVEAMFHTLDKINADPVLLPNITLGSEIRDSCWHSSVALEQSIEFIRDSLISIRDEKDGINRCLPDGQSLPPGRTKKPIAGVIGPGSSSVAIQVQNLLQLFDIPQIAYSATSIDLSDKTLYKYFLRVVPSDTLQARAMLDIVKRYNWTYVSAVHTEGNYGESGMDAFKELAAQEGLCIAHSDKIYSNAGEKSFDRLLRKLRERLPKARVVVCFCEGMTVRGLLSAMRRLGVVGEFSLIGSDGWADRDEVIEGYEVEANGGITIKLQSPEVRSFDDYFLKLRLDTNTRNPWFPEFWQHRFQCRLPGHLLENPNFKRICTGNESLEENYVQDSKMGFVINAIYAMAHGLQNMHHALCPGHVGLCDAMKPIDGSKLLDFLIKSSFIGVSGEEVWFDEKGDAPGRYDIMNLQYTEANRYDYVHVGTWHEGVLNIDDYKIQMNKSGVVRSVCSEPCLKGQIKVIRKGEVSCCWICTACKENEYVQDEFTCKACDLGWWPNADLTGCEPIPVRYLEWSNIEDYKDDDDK
# human mGluR5 extracellular domain (human-mGluR5-ECD) (human), sequence (P41594 other isoform, or with tags, fused parts or gaps): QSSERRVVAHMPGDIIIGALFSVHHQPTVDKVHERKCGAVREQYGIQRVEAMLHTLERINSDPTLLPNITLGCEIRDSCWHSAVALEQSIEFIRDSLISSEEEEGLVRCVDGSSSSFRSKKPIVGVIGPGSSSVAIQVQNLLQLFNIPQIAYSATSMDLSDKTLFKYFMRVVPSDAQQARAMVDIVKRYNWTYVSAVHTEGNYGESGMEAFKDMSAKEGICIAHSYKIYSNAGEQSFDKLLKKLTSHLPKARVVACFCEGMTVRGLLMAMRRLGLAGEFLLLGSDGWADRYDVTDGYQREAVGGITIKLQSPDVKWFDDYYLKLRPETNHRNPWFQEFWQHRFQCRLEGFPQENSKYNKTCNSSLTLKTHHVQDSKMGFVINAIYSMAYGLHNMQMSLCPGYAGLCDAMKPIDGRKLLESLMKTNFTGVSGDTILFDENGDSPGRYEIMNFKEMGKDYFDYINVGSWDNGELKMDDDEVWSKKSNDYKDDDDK
# T2 sequence (P41594 other isoform, or with tags, fused parts or gaps limits assumed): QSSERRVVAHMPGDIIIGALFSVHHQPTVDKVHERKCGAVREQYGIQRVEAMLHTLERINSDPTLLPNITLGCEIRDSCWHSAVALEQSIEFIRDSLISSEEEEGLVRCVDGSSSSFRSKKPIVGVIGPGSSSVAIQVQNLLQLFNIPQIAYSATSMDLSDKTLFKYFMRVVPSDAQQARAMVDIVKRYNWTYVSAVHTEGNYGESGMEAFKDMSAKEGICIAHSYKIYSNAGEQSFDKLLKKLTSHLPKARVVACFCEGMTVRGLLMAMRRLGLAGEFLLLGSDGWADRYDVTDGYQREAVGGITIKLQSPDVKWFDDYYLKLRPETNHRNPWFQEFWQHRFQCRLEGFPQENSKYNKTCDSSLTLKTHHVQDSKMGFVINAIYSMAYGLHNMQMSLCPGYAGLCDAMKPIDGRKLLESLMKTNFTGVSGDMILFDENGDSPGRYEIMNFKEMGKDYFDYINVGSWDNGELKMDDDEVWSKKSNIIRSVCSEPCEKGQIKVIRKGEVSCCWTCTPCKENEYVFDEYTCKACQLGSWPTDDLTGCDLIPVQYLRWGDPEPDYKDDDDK
binder,measurement,setting,value
B1,pERK Assay Inhibition IC50-nM,[1],2.29 nM
same,binding result,[2],no binding
same,EC50,[3],0.322 nM
same,mGluR5 (FL) cell binding-fold over background,[4],32.1 fold
same,EC50,[5],< 2 nM
same,EC50,[6],0.748 nM
B2,pERK Assay Inhibition IC50-nM,[1],1.51 nM
same,binding result,[2],no binding
same,EC50,[3],0.31 nM
same,EC50,[7],0.311 nM
same,mGluR5 (FL) cell binding-fold over background,[4],36.3 fold
same,EC50,[5],< 2 nM
same,EC50,[6],0.54 nM
B3,pERK Assay Inhibition IC50-nM,[1],4.29 nM
same,binding result,[2],no binding
same,EC50,[3],0.424 nM
same,EC50,[7],0.771 nM
same,mGluR5 (FL) cell binding-fold over background,[4],24.4 fold
same,EC50,[5],< 2 nM
same,EC50,[6],0.415 nM
B4,pERK Assay Inhibition IC50-nM,[1],1.34 nM
same,binding result,[2],no binding
same,EC50,[3],0.37 nM
same,EC50,[7],0.63 nM
same,mGluR5 (FL) cell binding-fold over background,[4],28.9 fold
same,EC50,[5],< 2 nM
same,EC50,[6],1.02 nM
B5,pERK Assay Inhibition IC50-nM,[1],1.41 nM
same,EC50,[7],0.229 nM
same,mGluR5 (FL) cell binding-fold over background,[4],34.2 fold
same,EC50,[5],< 2 nM
same,EC50,[6],0.684 nM
B6,pERK Assay Inhibition IC50-nM,[1],1.07 nM
same,binding result,[2],no binding
same,EC50,[3],0.339 nM
same,EC50,[7],0.848 nM
same,mGluR5 (FL) cell binding-fold over background,[4],27.9 fold
same,EC50,[5],< 2 nM
same,EC50,[6],0.409 nM
B7,pERK Assay Inhibition IC50-nM,[1],0.14 nM
same,binding result,[2],no binding
same,EC50,[3],0.255 nM
same,EC50,[7],0.423 nM
same,mGluR5 (FL) cell binding-fold over background,[4],37 fold
same,EC50,[5],< 2 nM
same,EC50,[6],0.545 nM
B8,pERK Assay Inhibition IC50-nM,[1],0.14 nM
same,binding result,[2],no binding
same,EC50,[3],0.371 nM
same,EC50,[7],0.497 nM
same,mGluR5 (FL) cell binding-fold over background,[4],40.8 fold
same,EC50,[5],< 2 nM
same,EC50,[6],0.269 nM
B9,pERK Assay Inhibition IC50-nM,[1],0.15 nM
same,EC50,[7],0.395 nM
same,mGluR5 (FL) cell binding-fold over background,[4],39.6 fold
same,EC50,[5],< 2 nM
same,EC50,[6],0.491 nM
B10,pERK Assay Inhibition IC50-nM,[1],0.15 nM
same,EC50,[7],0.305 nM
same,mGluR5 (FL) cell binding-fold over background,[4],40.4 fold
same,EC50,[5],< 2 nM
same,EC50,[6],0.312 nM
B11,pERK Assay Inhibition IC50-nM,[1],0.16 nM
same,binding result,[2],no binding
same,EC50,[3],0.36 nM
same,EC50,[7],0.476 nM
same,mGluR5 (FL) cell binding-fold over background,[4],40.3 fold
same,EC50,[5],< 2 nM
same,EC50,[6],0.341 nM
B12,pERK Assay Inhibition IC50-nM,[1],1.07 nM
same,EC50,[7],0.327 nM
same,mGluR5 (FL) cell binding-fold over background,[4],38.3 fold
same,EC50,[5],< 2 nM
same,EC50,[6],0.453 nM
B13,pERK Assay Inhibition IC50-nM,[1],3.73 nM
same,binding result,[2],no binding
same,EC50,[3],0.359 nM
same,EC50,[7],0.991 nM
same,mGluR5 (FL) cell binding-fold over background,[4],31.9 fold
same,EC50,[5],< 2 nM
same,EC50,[6],0.775 nM
